This data set is described as follows: label from the status in PepcDB records.
“MNMQKCDSTQEQQLTFEPRGHQLTNINVWTPDSQWLAYDVRPNSSTFSGLTIERVNCITGDIEVIYRSQHGAHVGVVTVSPDMPARYVFIHGPEHPDNHWHYDFHHRRGVIVTEPDRELAVTLDAMDITPPFTPGALRGGSHVHVFSPDGSRLSFTYNDHVLHEQDPALDCRNVAVALPLHGVNPPKQHPREYDGSHFCVLVTRTTPTPLAGSDQISRAYEEGWIGSQGYLKMDGTRQRWALAFIGDTLSAQGEKIPEIFIADLPEHERDYARAGEEPLEGTQTTMPAPPAGVRQRRLTFTAERHFPGLATSPRHWLRTSPDGSAIACLMKDDEGVVQLWLVSPNGGEPRQLTFTEGGIQSAFSWHPQGHSLVFVCDNSVMQCDSTTGQLWRLTARSAIAPMADAVVFSPDGTKVAFMREIDGLAQIFTVKVD”: the protein production result was “failed”. For “MNNGRRIGLIMIITGATLWGLSGPMIQWLFQHTNVSSIDFLTIRLLLAGIFILSFLLIKKQNIFQIWKHPRHSIQLIIFSILGMLGAQYAFIETVHISNAVTATLFQFLGPVFITIYVAFEQRKFPASMQLLAIITALTGTYFIITNGSIENIVLSKEAIIFGLLTAIGFAFYTLHPASLIKECGTTLVIGWGMLIGGIALLICNRSFGWHELSQTFTTKTFSMLILIIISGTLSFLLYIGSLKYLAATETSILSSIEPLVAAIVSIAWLNESFGAYQLLGGVCIVLSVIFLTMPQKENEPAFTSEQI” the value was “failed”; for “MNNIKRFFRYISKNAKYIDYPLVVTYLLLCLIGLVMVYSASMVAATKGSLTGGISVPGTYFYTRQLMYVIMSLVIVFFMAFFMNVKLLETIRFQKWMMIGIIILLAATLVVGSNINGSKSWINLGFMNLQASELLKIAIILYIPYMIEKKRPKVFKQPKLMTSPIILAGLCIALVLLQRDVGQTLLIMIIFVSILFYAGIGVQKSIKYGLLIIVGVVIIGSLFLIIGLVPDYLTARFSTLTNPFSQESGTGYHISNSLIAIGNGGLLGRGLGNSIMKLGYLPEPHTDFIFSIICEELGLVGGLVVICLLFFIVYRAFELANKTNSYFYKLVCVGVASYIGSQTFVNLGGISGTIPLTGVPLPFISFGGSSMISLSIALGLLLITGKQIRIEAYRKKQANKKKTHIGMTRRY”, “failed”; for “MNNKIYFTPGPSELYPTVRQHMITALDEKIGVISHRSKKFEEVYKTASDNLKTLLELPSNYEVLFLASATEIWERIIQNCVEKKSFHCVNGSFSKRFYEFAGELGREAYKEEAAFGKGFYPADITVPADAEIICLTHNETSSGVSMPVEDINTFRDKNKDALIFVDAVSSLPYPKFDWTKIDSVFFSVQKCFGLPAGLGVWILNDRVIEKSKALLAKRKSIGTYHTIPSMLEKARVNQTPETPNAMNIFLLGKVTGDMLQISADGIRKQTEEKAALINTYIESSKVFSFGVEDAKLRSMTTIVANTTMLPGEINKILEPFDMAVGAGYGSKKETQIRIANFPAHSLEQVHKLVQTLKEKIG”, “not failed”. The entry for “MNNKLKTQAVEQLFQAILSLKDLDEAYDFFEDVCTINEILSLSQRFEVAKMLREHRTYLDIAEKTGASTATISRVNRSLNYGNDGYDRVFERLGMLEKESEDNK” is “not failed”; for “MNNKTKGIILITISALSFALMSTFVKLSGDLPSIEKSFFRNLVSCFVAFYLVKKDNALLFGHKENRLALIGRSALGTLGIWANYYAIDRLILSDATILNKLSPFFVIIFSYLFLKEKLKPIHIICLLAAFSGVLFIVRPSGNLASNFIPAIIGLCSAAFAGGAYTFVRYLGGKEKGATIVFFFSFFSIVTTFPIMLFQFETFSLEQFVFLILAGVAASCAQFALTAAYKYAPARDISIYDYTQVIFTALIGFVLFGDIPDKISLIGYVLILLASFSIFLYNKKEASK” it is “not failed”; for “MNNNLQRDAIAAAIDVLNEERVIAYPTEAVFGVGCDPDSETAVMRLLELKQRPVDKGLILIAANYEQLKPYIDDTMLTDVQRETIFSRWPGPVTFVFPAPATTPRWLTGRFDSLAVRVTDHPLVVALCQAYGKPLVSTSANLSGLPPCRTVDEVRAQFGAAFPVVPGETGGRLNPSEIRDALTGELFRQG” it is “not failed”. For the sequence “MNNPGLFQARWNLGKLVLCNLLPLALLGFWLWPTGQALCTVFDEWLFHHLNAPLASNSTWLHIWAVASLRPFDIVVGLIMLGLLIRGDWVFKAVDVRRAFFGFLSILILMVVIRALFSKLVAVMNWQHNSPSMVLEGAVHMSDYFPGWEKTWELKDRSSQSFPGDHASVLLIWGLFMGIFSRSIGQFLIVWGLTLLFMMPRLVAGAHWGQDDYIGGVLLAVLALGWGYYTPYAARMSNFLLRLTHPLFNLLSRMPVLSRMSVVRASSLLR”, the protein production entry is on record as “failed”. Consider “MNNQSVDVDLITRFDNEAKLHALDSVYAIAEFDLAGKLIEANPLFCKMLGYKKEDIIQKSHTLFLPEAQRQKHDHFWHDVIKGNINAGEFQRKTQKGDIIWLHAAYTPIIDHSGRRIGVIKLALDITQEKRLMSEHRAQLDAIENAQGVIEFDKDGYITHVNKHYLILTGYEAKEILGLHHKSLCDPIYTEQADYQTFWETLHRGHPISGRFHRLGKGNHSFWIQATYSPVMDSDGNVRKIIKYAHNITQNVETEKKAHQQGIILDILLSVHDSFLLDHNLPSACDKVFERLLDVTNSSFGFIATLQEDEDGQSLYLPAISNLAWDEETLTWYRHQRRTHGGLRLRKLDNLFGHVVTHNTVVCTNSLLRQKAGRDLPPIHPALHSLLGIPITHNGKTVGMIALANRREGYDQTMIELLAPLVKTLGIIIHARLLEDERTQIEASLRFNAGHDFLTGLPNRSSFFEQASAFFLLRQQNQHADKSCLAIIDIDLFKNINDQFGHLAGDAVLKELAMLMRMSLRQEDLVARIGGEEFIILLKDVPYQTAVMAIERIRKAIEQHTLEYDRQNLNFTISAGIAAYRSDLASVEDWIQLADENLYAAKRQGRNCVK”, for which the protein production entry is given as “failed”.

As for “MNNRPQLIYILPNLFTAASAFLGVISIIASIHGNYYTALIYIILSLICDGLDGRVARLTNSTSKFGVEFDSLADLVAFGVAPAVLFYMAIGYDFGKLGSLITAFFVVFGAIRLARFNVTTGTYEPSVFIGLPIPTAAVVSAIWTYAFISYDFLKPYGVVFLVLQAILGLLMVSNIRYPSFKKLDFNRSSVLKVLIILIIIFSFLYLYPLESLVILASLYVLYGIIRVLYTIIVSKFKIRNQE”, the protein production result was “failed”.

As for “MNNSETPAPGPDSLLALAFPSDPQVSPDGKQVAFVLAQISEEDPAKPDKDFARPRYRSGLWLSEGGAARPLTHAETGRGDSAPRWSPDGQNLAFVRSAGEVKAALMLLPLKGGEARRVTHFKNGVSGPQWSPDGRFIAFTTTADTEDKRDERGEARVLTRPVYRANGADWLPERPAALWLYDVEADKLREWYAPEIGIGALSWWPDSRGVLIVQSEDEWQASQWRQDVYDLPLPTADAPAAPQKLLDWNSAAHGLAPHPDGQRFALIGRPAGKGNTEHAHLYLIENGQHRRLDTGHDHPVGDAVGGDCHVGAFPEGPRWLDGDTLLFSSTVRGSVGLFTAHIGGGVKAYDHDPQGVISAFTANEHGVALIRESATRFPEVELNGQRVTDLHARFPFPVREPQRVTFETELGEGEGWVLLPEGEQKVPALLNIHGGPHTDYGHGFTHEFQLMAARGYGVCYSNPRGSVGYGQAWVDAIYGRWGTVDADDLLNFFDRCLEAVPRLDAAKTAVMGGSYGGFMTNWITGHTTRFQAAITDRCISNLISFGGTSDIGLRFWDDELGLDFSRRADALKLWDLSPLQYVENVKTPTLIVHSVLDHRCPVEQAEQWYAALHKHQVPVRFVRFPEENHELSRSGRPDRRLTRLNEYFAWLERWL”, the protein production result was “failed”.

Regarding “MNNSINHKFHHISRAEYQELLAVSRGDAVADYIIDNVSILDLINGGEISGPIVIKGRYIAGVGAEYTDAPALQRIDARGATAVPGFIDAHLHIESSMMTPVTFETATLPRGLTTVICDPHEIVNVMGEAGFAWFARCAEQARQNQYLQVSSCVPALEGCDVNGASFTLEQMLAWRDHPQVTGLAEMMDYPGVISGQNALLDKLDAFRHLTLDGHCPGLGGKELNAYITAGIENCHESYQLEEGRRKLQLGMSLMIREGSAARNLNALAPLINEFNSPQCMLCTDDRNPWEIAHEGHIDALIRRLIEQHNVPLHVAYRVASWSTARHFGLNHLGLLAPGKQADIVLLSDARKVTVQQVLVKGEPIDAQTLQAEESARLAQSAPPYGNTIARQPVSASDFALQFTPGKRYRVIDVIHNELITHSHSSVYSENGFDRDDVSFIAVLERYGQRLAPACGLLGGFGLNEGALAATVSHDSHNIVVIGRSAEEMALAVNQVIQDGGGLCVVRNGQVQSHLPLPIAGLMSTDTAQSLAEQIDALKAAARECGPLPDEPFIQMAFLSLPVIPALKLTSQGLFDGEKFAFTTLEVTELEHHHHHH”, the protein production result was “not failed”. For “MNNVSEERVAEMIWDAVSEGATLKDVHGIPQDMMDGLYAHAYEFYNQGRLDEAETFFRFLCIYDFYNPDYTMGLAAVCQLKKQFQKACDLYAVAFTLLKNDYRPVFFTGQCQLLMRKAAKARQCFELVNERTEDESLRAKALVYLEALKTAETEQHSEQEKELEHHHHHH” the value was “not failed”; for “MNNVSTRAPVRGTKTSLTLPNILTYARIAAIPVVVGCIFAQSILGGPLALRWVALAVFIAAAITDFLDGHFARIWDQQSAFGRMLDPIADKLLVASCLLMLAADSIIHGWTLWAAIVILCREILVSGLREYLAALRVSVPVTRLAKWKTTAQLVAIGFLLAGEAGDEVLPFTTEIGVSLLWLSALLTMYTGYDYFRAGIHHLIEEDQA”, “failed”. Turning to “MNPADVTQLAPAVSTDVSLLSLFWHAHWVVKSIMLGLLGCSVWVWAIAIDKLLLFSRTKRAMDRFEQAFWSGESIDELYRALSAKPTHSMAACFVAAMREWKRSFESHSRSFAGLQMRIEKVMNVSIAREVERLERRLLVLATVGSAGPFVGLFGTVWGIMSSFQSIAASKNTSLAVVAPGIAEALFATAIGLIAAIPATIFYNKFTSEVNRQTQRLEGFADEFSAILSRQIDERT”, the protein production result is “failed”. As to “MNPALVALGLTLFAGMATGIGSAIAFFARRTNFRFLSVATGFSAGVMVYVSFVEILPKGLDSLVRSCGESWGHWLNAASFFGGMLCIGLIDAVIPAAKNPHEIHADHEIAPLHDRSAPLPDFGSLAADPRCAPTGTHDHRPPQRHLLRMGLFTALAITIHNFPEGMATFLAALESPRVGAAIAVAIALHNIPEGVSVSVPIFYATGNRRKAFALSLLSGMAEPVGAAIGYLALLLFSGGASGAIPDQVTGALFGGVAGIMVYISLDELLPASRAYGKGHDSLLGLVGGMAVMALSLLLMK”, the protein production result is recorded as “failed”. “MNPCGIQRYQTQMYTQVSYDFRLSWSSGKRSASGFEAVGGAKMAEEKLGMKTQVPASIESQKPRPKKAPEFPIVEKLNWLIHLYYIRKDYEACKAVIKEQLQETQGLCEYAIYVQALIFRLEGNIQESLELFQTCAVLSPQCADNLKQVARSLFLLGKHKAATEVYNEAAKLNQKDWEICHNLGVCYTYLKQFSKAQDQLHSALQLNKHDLTYIMLGKIHLLQGDLDKAIEIYKKAVEFSPENTELLTTLGLLYLQLGVYQKAFEHLGNALTYDPANYKAILAAGSMMQTHGDFDVALTKYRVVACAIPESPPLWNNIGMCFFGKKKYVAAISCLKRANYLAPFDWKILYNLGLVHLTMQQYASAFHFLSAAINFQPKMGELYMLLAVALTNLEDIENAKRAYVEAVRLDKCNPLVNLNYAVLLYNQGEKKGALAQYQEMEKKVHFLKDNNPLEFDSEMVEMAQKLGAALQVGEALVWTKPVKDPKSKHRTNSGSKSATLQQPLGSFQALGQAMSSAAAHRKIPSGAVGAQLTKPPSLPLEPEPEPTVEASPTEASEQNKEK”: the protein production result is on record as “failed”.

In the case of “MNPFKNFETRQVLEETCEVHGCQLWLTKVPIKGRLEELKQCPECTKAAINIFENKLNSQSKINSKLADTYAVFERDSLVSDKLRAKSLENYEIKDEIDQHAINYAKRMEQFYRQDRTGNAIITGPSGVGKSHLTYGLAKFMNEQFKAYESPKSVLFISLVSLFTKIKESFKVDNGYRQADMIELLTRVDYLFLDDLGKESRKGDSQNNEWTHQILYEILDNRSNTIINTNLSSKEIKALYADNYGNGALSSRILEGVTGNSFAYPKDMEDRRY”, the protein production result is recorded as “failed”.

Source of the values: a protein production outcome set (Wang et al. 2014).
